Values belong to the substance of their own block, whether it stands above or below them.
Legend:
[1] = target: taxol-stabilized microtubules (bovine (brain)) (UniProt Q6B856); assay: co-sedimentation
[2] = target: kinesin heavy chain deletion mutant H810 (stop codon after amino acid 810), myc-tagged (rat) (UniProt Q2PQA9); assay: co-IP
UniProt Q2PQA9, sequence (Q2PQA9 2-963, stated change not applied): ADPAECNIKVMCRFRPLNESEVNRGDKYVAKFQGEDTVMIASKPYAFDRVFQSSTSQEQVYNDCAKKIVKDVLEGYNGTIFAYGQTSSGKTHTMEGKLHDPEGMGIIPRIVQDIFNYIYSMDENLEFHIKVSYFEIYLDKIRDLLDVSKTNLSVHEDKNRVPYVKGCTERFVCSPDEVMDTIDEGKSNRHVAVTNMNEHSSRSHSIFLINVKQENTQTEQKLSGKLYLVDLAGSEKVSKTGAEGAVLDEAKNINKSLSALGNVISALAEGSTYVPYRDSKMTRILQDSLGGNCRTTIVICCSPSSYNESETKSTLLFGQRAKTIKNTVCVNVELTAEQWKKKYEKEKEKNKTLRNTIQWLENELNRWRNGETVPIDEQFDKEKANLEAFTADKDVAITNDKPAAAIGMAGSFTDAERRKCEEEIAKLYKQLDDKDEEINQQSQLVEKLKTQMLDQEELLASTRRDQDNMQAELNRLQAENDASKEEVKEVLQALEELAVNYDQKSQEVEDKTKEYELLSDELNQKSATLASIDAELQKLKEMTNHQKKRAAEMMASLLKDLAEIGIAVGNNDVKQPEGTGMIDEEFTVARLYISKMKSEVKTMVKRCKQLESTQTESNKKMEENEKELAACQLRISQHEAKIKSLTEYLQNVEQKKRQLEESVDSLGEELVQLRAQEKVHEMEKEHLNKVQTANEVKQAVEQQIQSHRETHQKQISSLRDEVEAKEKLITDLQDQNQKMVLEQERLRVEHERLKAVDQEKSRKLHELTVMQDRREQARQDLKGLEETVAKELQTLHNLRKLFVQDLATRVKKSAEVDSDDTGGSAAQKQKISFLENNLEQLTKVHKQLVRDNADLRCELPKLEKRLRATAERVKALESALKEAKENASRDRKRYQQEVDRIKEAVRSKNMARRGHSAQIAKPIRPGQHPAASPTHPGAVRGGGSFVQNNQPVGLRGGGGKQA

UniProt Q6B856, sequence (Q6B856 whole entry, looked up): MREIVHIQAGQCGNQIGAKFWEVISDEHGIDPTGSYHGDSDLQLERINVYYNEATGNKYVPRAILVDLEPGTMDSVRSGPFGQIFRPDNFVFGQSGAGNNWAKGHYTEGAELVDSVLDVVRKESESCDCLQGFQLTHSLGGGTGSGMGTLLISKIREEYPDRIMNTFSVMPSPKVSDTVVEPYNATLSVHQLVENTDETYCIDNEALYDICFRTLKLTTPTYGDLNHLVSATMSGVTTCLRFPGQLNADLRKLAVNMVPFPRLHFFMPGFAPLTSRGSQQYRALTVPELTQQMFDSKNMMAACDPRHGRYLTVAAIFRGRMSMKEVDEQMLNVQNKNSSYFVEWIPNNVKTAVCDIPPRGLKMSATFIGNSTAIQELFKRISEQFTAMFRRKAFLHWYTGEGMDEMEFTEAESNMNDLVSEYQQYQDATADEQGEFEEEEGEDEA

Substance: NH2-terminal 420 amino acids of human conventional kinesin heavy chain (from UniProt P33176 1-420) (domain or fragment)
tubulin concentration at half-maximal binding [1]: 0.15 mM

Substance: kinesin light chain splice form C (rat), HA-tagged (from UniProt P37285 1-560) (natural protein)
percent of LC coprecipitated [2]: 50%

Other lines, results leading:

percent of HC bound to MTs [1]: 50% | percent of L176 bound to MTs [1]: 20%
Substance: HC coexpressed with the LC deletion mutant L176 (from UniProt Q2PQA9 1-963; P37285 1-176) (complex)

percent of the HC construct sedimented with MTs [1]: 90%
Substance: HC deletion mutant H810 coexpressed with LC (from UniProt Q2PQA9 1-810; P37285 1-560) (complex)

percent of the HC construct sedimented with MTs [1]: 50 to 95%
Substance: HC deletion mutant H891 coexpressed with LC (from UniProt Q2PQA9 1-891; P37285 1-560) (complex)
